Test results as given in US20120171122A1 (published 2012).
No end group written: not given here. *: point of attachment. Biotin = O=C1N[C@H]2[C@H](CS[C@H]2CCCCC(=O)*)N1

Molecular target: T1, N-terminally biotinylated peptide HRRSARYLDTVL
T1 construct: Captured through its biotin on streptavidin coated onto the ELISA wells; also called ligand of NHERF PDZ1 mutant H9
T1 peptide: Biotin-HRRSARYLDTVL
Assay: ELISA; serial dilutions of GST-PDZ fusion on biotinylated peptide captured on streptavidin-coated wells; anti-His HRP detection
Method: The GST-PDZ fusion protein expressed by clone H2 was partially characterized. The DNA of clone H2 was transformed into E. coli strain BL21 [DE3] and the resulting transformant induced in 1 mL culture volume using 0.1 mM IPTG for 2.5 hours at 30° C. with shaking at 300 rpm. The cells were harvested from the culture medium and lysed using BugBuster (Novagen). Batch affinity purification was carried out using 50 μl of glutathione affinity resin (Novagen), eluting the bound protein in reduced glutathione elution buffer. […] The eluted protein was tested by ELISA for binding to N-terminally biotinylated peptide […] (SEQ ID NO: 14) bound to 0.1 μg of streptavidin coated onto each well of an ELISA plate. Serial dilutions of the protein were added to wells in which the peptide was present or absent (negative controls) and immuno-detection of a C-terminal hexahistidine tag provided by the modified pGEX-2TK vector was carried out using a horseradish peroxidase-conjugated antibody (Roche).

- binding result: binds
B1: GST-PDZ fusion protein expressed by clone H2 (NHERF PDZ1 loop-variant H2, CHPQFC inserted in loop β23 of NHERF PDZ1 mutant H9) (designed binder, not shown: a dimerising Fc or GST; large carriers; small tags and cut ends)
chain: LPRLCCLEKGPNGYGFHLHGEKGCHPQFCKVGQYIGLVVPGSPAEKAGLLAGDRLVEVNGENVEKETHQQVVSRIRAALNAVCLLVVDPE
notes: Partially purified on glutathione resin from induced E. coli BL21[DE3]; also called PDZ loop-variant H2; NHERF PDZ loop-variant H2
